This assay concerns the target T1, FLT3 (Homo sapiens, UniProt P36888).
T1 sequence (P36888 27-993): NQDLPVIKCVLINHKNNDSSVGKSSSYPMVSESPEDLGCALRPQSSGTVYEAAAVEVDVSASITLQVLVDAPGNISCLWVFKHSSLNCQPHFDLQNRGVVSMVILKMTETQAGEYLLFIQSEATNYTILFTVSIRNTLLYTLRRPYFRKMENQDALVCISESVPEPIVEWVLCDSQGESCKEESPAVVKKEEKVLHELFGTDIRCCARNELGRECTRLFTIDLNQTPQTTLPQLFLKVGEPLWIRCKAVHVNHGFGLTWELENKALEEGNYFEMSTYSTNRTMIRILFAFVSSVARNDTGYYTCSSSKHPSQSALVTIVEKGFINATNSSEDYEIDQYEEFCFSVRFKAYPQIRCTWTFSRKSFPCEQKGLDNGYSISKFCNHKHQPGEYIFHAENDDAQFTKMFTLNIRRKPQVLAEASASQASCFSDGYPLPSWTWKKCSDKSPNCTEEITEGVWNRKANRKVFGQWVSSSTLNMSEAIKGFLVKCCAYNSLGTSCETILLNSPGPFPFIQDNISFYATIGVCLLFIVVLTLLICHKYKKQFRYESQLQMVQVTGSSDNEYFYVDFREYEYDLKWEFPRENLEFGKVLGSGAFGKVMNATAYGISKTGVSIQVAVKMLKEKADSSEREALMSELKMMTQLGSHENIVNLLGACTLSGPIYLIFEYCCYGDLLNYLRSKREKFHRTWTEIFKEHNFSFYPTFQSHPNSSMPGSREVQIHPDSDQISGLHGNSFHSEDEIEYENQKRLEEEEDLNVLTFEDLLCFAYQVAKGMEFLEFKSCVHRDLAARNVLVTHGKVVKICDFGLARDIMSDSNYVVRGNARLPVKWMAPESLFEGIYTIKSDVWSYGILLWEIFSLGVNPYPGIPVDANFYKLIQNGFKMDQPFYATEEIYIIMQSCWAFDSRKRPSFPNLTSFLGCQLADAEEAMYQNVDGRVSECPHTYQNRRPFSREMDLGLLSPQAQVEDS
Kind of assay: Phosphorylation of existing peptide substrate by FLT3. The format is biochemical. The settings on record: in the applicant's experience.

On to “FTDRLQQYISTR [Flt3tide, previously reported Flt3 substrate peptide (Böhmer & Uecker 2009)]”, for which the “phosphorylation by FLT3” value is on record as “poorly phosphorylated”.

Source of the values: patent publication US10590168B2, “Substrates for FLT3 kinase and uses thereof” (REGENTS OF THE UNIVERSITY OF MINNESOTA, priority 2016, dated 2020).
